{"source": "paper PMC5098423", "about": "(DNA repair, 2015)", "binders": {"B1": {"name": "Flag-tagged Hus1 (natural protein, UniProt O60921 1-280, looked up)", "chain": "MKFRAKIVDGACLNHFTRISNMIAKLAKTCTLRISPDKLNFILCDKLANGGVSMWCELEQENFFNEFQMEGVSAENNEIYLELTSENLSRALKTAQNARALKIKLTNKHFPCLTVSVELLSMSSSSRIVTHDIPIKVIPRKLWKDLQEPVVPDPDVSIYLPVLKTMKSVVEKMKNISNHLVIEANLDGELNLKIETELVCVTTHFKDLGNPPLASESTHEDRNVEHMAEVHIDIRKLLQFLAGQQVNPTKALCNIVNNKMVHFDLLHEDVSLQYFIPALS"}}, "target": "T1, Q324H MUTYH (human, UniProt Q9UIF7-3 1-535, Q324H)", "T1 sequence (looked up)": "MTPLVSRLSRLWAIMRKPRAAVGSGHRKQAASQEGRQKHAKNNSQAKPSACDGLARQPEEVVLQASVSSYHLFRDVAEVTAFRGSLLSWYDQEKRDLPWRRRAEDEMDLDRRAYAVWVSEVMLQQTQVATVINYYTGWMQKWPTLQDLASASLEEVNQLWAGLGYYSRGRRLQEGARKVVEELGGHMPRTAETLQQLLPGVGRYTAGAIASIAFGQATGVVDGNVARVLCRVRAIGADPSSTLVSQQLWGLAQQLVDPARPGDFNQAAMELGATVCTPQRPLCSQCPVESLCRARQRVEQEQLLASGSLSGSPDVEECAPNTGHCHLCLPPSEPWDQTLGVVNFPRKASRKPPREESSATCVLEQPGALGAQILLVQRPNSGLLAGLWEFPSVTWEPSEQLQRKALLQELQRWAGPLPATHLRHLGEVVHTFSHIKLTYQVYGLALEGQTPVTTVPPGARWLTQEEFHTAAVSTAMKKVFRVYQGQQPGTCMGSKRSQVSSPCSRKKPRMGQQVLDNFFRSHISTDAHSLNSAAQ", "experiment": "pull-down", "data": [{"binder": "B1", "values": [{"measurement": "percent decrease of the interaction relative to WT MUTYH", "result": "~20", "unit": "%"}]}]}
